From patent US20220324974A1 (SORRENTO THERAPEUTICS, published 2022)

Columns and labels:
[1] = molecular target: T1, BCMA expressed on MM1.R myeloma cells (UniProt Q02223 1-184); assay: cell-based or functional assay
T1 sequence (looked up): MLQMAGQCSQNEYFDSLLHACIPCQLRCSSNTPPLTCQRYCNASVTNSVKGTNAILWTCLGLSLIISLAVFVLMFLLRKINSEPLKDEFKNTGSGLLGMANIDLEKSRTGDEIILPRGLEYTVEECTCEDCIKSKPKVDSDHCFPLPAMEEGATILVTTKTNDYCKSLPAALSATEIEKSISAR

[2] = molecular target: T2, BCMA target antigen (Acro Biosystems catalog # BCA-H522g) (UniProt Q02223 1-54); assay: SPR Biacore, antibody captured by anti-Fc, antigen as analyte, 1:1 model
T2 construct: range 1-54; Bought protein; also called BMCA target antigen; BCMA antigen
T2 sequence (looked up): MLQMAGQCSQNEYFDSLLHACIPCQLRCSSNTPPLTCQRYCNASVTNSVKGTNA

[3] = molecular target: T3, CD3 antigen on primary human T cells (human, UniProt P07766 23-207; P04234 22-171; P09693 23-182); assay: flow cytometry on freshly isolated primary human T cells, anti-human Fc-APC secondary, GeoMean RL1-H of singlets
T3 construct: CD3 is a multi-chain complex; also called CD3-expressing T cells; CD3-expressing CD38-minus T cells

[4] = molecular target: T3, CD3 antigen on primary human T cells; assay: as above; remark: listed apart in the source
[5] = molecular target: T3, CD3 antigen on primary human T cells; assay: flow cytometry on CD38-minus primary human T cells, anti-human Fc-APC secondary, GeoMean RL1-H of singlets
[6] = molecular target: T3, CD3 antigen on primary human T cells; assay: flow cytometry on CD38-minus primary human T cells
[7] = molecular target: T4, CD38 expressed on human tumor cell lines (RPMI8226, MM1.R and other CD38(+) lines) (human, UniProt P28907 1-300); assay: cell-based or functional assay
[8] = molecular target: T4, CD38 expressed on human tumor cell …; assay: cell-based or functional assay; remark: listed apart in the source

B1: Kv4.33 BCMA/CD3 three-chain non-tandem bispecific antibody (bispecific antibody)
chain 1: EVQLVESGGGLVKPGGSLRLSCAASGFTSSTAWMSWVRQAPGKGLEWVGRIKSKSDGGTTDYAAPVKGRFTISRDDSKNTLFLQMNSLKTEDTAVYYCAKGGGTYGYWGQGTTVTVSSASTKGPSVFPLAPSSKSTSGGTAALGCLVKDYFPEPVTVSWNSGALTSGVHTFPAVLQSSGLYSLSSVVTVPSSSLGTQTYICNVNHKPSNTKVDKRVEPKSSDKTHTCPPCPAPEAAGGPSVFLFPPKPKDTLMISRTPEVTCVVVDVSHEDPEVKFNWYVDGVEVHNAKTKPREEQYNSTYRVVSVLTVLHQDWLNGKEYKCKVSNKALPAPIEKTISKAKGQPREPQVYTLPPSREEMTKNQVSLSCAVKGFYPSDIAVEWESNGQPENNYKTTPPVLDSDGSFFLVSKLTVDKSRWQQGNVFSCSVMHEALHNHYTQKSLSLSPGKGSGGSSGGGSGGGGSQVQLVQSGAEVKKPGASVKVSCKASGYTFISYTMHWVRQAPGQGLEWMGYINPRSGYTHYNQKLKDKATLTADKSASTAYMELSSLRSEDTAVYYCARSAYYDYDGFAYWGQGTLVTVSSASTKGPSVFPLAPSSKSTSGGTAALGCLVKDYFPEPVTVSWNSGALTSGVHTFPAVLQSSGLYSLSSVVTVPSSSLGTQTYICNVNHKPSNTKVDKRVEPKSC
chain 2: SYVLTQPASVSGSPGQSVTISCTGTSSAHGGHYYVSWYQQHPGKAPKLMIYDVSNRPSGVSNRFSGSKSGNTASLTISGLQAEDEADYYCGSYTSSGSYVFGTGTKLTVLGQPKAAPSVTLFPPSSEELQANKATLVCLISDFYPGAVTVAWKADSSPVKAGVETTTPSKQSNNKYAASSYLSLTPEQWKSHRSYSCQVTHEGSTVEKTVAPTESSGGSGGDKTHTCPPCPAPEAAGGPSVFLFPPKPKDTLMISRTPEVTCVVVDVSHEDPEVKFNWYVDGVEVHNAKTKPREEQYNSTYRVVSVLTVLHQDWLNGKEYKCKVSNKALPAPIEKTISKAKGQPREPQVYTLPPSREEMTKNQVSLWCLVKGFYPSDIAVEWESNGQPENNYKTTPPVLDSDGSFFLYSKLTVDKSRWQQGNVFSCSVMHEALHNHYTQKSLSLSPGK
chain 3: DIQMTQSPSSLSASVGDRVTITCSASSSVSYMNWYQQKPGKAPKRLIYDTSKLASGVPSRFSGSGSGTDFTLTISSLQPEDFATYYCQQWSSNPPTFGGGTKVEIKRTVAAPSVFIFPPSDEQLKSGTASVVCLLNNFYPREAKVQWKVDNALQSGNSQESVTEQDSKDSTYSLSSTLTLSKADYEKHKVYACEVTHQGLSSPVTKSFNRGEC
notes: also called Kv4.33 (3XGS) BCMA/CD3
- IC50 pM, TAA-dependent cytotoxicity (MM1.R target cells by the text) [1]: 134 pM
- Kd [2]: 47.7 nM
- koff [2]: 0.0364 s⁻¹
- kon [2]: 762000 M⁻¹ s⁻¹
- EC50 (read off the curve) [3]: ~2 µg/mL
- EC50 (read off the curve) [4]: ~2 µg/mL

B2: Kv4.33 (4XGS) CD38/CD3 three-chain non-tandem bispecific antibody (bispecific antibody)
heavy: QVQLVESGGGLVKPGGSLRLSCAASGFTFSDDYMSWIRQAPGKGLEWVASVSNGRPTTYYADSVRGRFTISRDNAKNSLYLQMNSLRAEDTAVYYCAREGWSGEFTDWGQGTLVTVSSASTKGPSVFPLAPSSKSTSGGTAALGCLVKDYFPEPVTVSWNSGALTSGVHTFPAVLQSSGLYSLSSVVTVPSSSLGTQTYICNVNHKPSNTKVDKRVEPKSSDKTHTCPPCPAPEAAGGPSVFLFPPKPKDTLMISRTPEVTCVVVDVSHEDPEVKFNWYVDGVEVHNAKTKPREEQYNSTYRVVSVLTVLHQDWLNGKEYKCKVSNKALPAPIEKTISKAKGQPREPQVYTLPPSREEMTKNQVSLSCAVKGFYPSDIAVEWESNGQPENNYKTTPPVLDSDGSFFLVSKLTVDKSRWQQGNVFSCSVMHEALHNHYTQKSLSLSPGKGGSGSGSGGSSGGGSGGGGSQVQLVQSGAEVKKPGASVKVSCKASGYTFISYTMHWVRQAPGQGLEWMGYINPRSGYTHYNQKLKDKATLTADKSASTAYMELSSLRSEDTAVYYCARSAYYDYDGFAYWGQGTLVTVSSASTKGPSVFPLAPSSKSTSGGTAALGCLVKDYFPEPVTVSWNSGALTSGVHTFPAVLQSSGLYSLSSVVTVPSSSLGTQTYICNVNHKPSNTKVDKRVEPKSC
light 1: not shown
light 2: B1 chain 3
- EC50 (read off the curve) [5]: ~2 µg/mL

B3: Kv6.2 (7GS) CD38/CD3 two-chain non-tandem bispecific antibody with non-cleavable GS second linker (bispecific antibody)
heavy: QVQLVESGGGLVKPGGSLRLSCAASGFTFSDDYMSWIRQAPGKGLEWVASVSNGRPTTYYADSVRGRFTISRDNAKNSLYLQMNSLRAEDTAVYYCAREGWSGEFTDWGQGTLVTVSSASTKGPSVFPLAPSSKSTSGGTAALGCLVKDYFPEPVTVSWNSGALTSGVHTFPAVLQSSGLYSLSSVVTVPSSSLGTQTYICNVNHKPSNTKVDKRVEPKSSDKTHTCPPCPAPEAAGGPSVFLFPPKPKDTLMISRTPEVTCVVVDVSHEDPEVKFNWYVDGVEVHNAKTKPREEQYNSTYRVVSVLTVLHQDWLNGKEYKCKVSNKALPAPIEKTISKAKGQPREPQVYTLPPSREEMTKNQVSLSCAVKGFYPSDIAVEWESNGQPENNYKTTPPVLDSDGSFFLVSKLTVDKSRWQQGNVFSCSVMHEALHNHYTQKSLSLSPGKGSGGSSGGGSGGGGSQVQLVQSGAEVKKPGASVKVSCKASGYTFISYTMHWVRQAPGQGLEWMGYINPRSGYTHYNQKLKDKATLTADKSASTAYMELSSLRSEDTAVYYCARSAYYDYDGFAYWGQGTLVTVSSASTKGPSVFPLAPSSKSTSGGTAALGCLVKDYFPEPVTVSWNSGALTSGVHTFPAVLQSSGLYSLSSVVTVPSSSLGTQTYICNVNHKPSNTKVDKRVEPKSC
light: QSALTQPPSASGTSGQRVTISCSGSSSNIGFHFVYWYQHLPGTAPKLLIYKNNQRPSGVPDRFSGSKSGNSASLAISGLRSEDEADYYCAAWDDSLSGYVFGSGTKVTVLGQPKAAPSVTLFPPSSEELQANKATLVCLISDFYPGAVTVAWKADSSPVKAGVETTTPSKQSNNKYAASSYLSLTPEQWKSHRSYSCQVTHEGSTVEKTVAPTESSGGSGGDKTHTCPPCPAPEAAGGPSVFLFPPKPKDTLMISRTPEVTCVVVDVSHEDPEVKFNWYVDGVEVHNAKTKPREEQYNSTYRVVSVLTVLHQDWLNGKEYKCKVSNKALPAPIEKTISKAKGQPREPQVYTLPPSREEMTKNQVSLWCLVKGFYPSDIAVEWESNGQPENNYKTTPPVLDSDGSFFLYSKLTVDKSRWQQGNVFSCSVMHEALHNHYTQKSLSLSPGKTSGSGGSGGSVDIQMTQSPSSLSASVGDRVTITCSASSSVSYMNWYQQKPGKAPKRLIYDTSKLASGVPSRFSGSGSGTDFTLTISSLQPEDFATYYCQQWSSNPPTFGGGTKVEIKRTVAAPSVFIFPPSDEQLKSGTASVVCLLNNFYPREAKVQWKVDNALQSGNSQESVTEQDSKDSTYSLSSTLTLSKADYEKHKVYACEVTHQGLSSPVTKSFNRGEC
notes: also called control non-cleavable bispecific antibody having a non-tandem structure (Kv6.2)
- fold reduction of binding to CD3 [6]: > 1000 fold

B4: Kv5.1 CD38/CD3 three-chain in-tandem bispecific antibody (bispecific antibody)
chain 1: QVQLVESGGGLVKPGGSLRLSCAASGFTFSDDYMSWIRQAPGKGLEWVASVSNGRPTTYYADSVRGRFTISRDNAKNSLYLQMNSLRAEDTAVYYCAREGWSGEFTDWGQGTLVTVSSASTKGPSVFPLAPSSKSTSGGTAALGCLVKDYFPEPVTVSWNSGALTSGVHTFPAVLQSSGLYSLSSVVTVPSSSLGTQTYICNVNHKPSNTKVDKRVEPKSCGGSGSGSGGSSGGGSGGGGSQVQLVQSGAEVKKPGASVKVSCKASGYTFISYTMHWVRQAPGQGLEWMGYINPRSGYTHYNQKLKDKATLTADKSASTAYMELSSLRSEDTAVYYCARSAYYDYDGFAYWGQGTLVTVSSASTKGPSVFPLAPSSKSTSGGTAALGCLVKDYFPEPVTVSWNSGALTSGVHTFPAVLQSSGLYSLSSVVTVPSSSLGTQTYICNVNHKPSNTKVDKRVEPKSSDKTHTCPPCPAPEAAGGPSVFLFPPKPKDTLMISRTPEVTCVVVDVSHEDPEVKFNWYVDGVEVHNAKTKPREEQYNSTYRVVSVLTVLHQDWLNGKEYKCKVSNKALPAPIEKTISKAKGQPREPQVYTLPPSREEMTKNQVSLSCAVKGFYPSDIAVEWESNGQPENNYKTTPPVLDSDGSFFLVSKLTVDKSRWQQGNVFSCSVMHEALHNHYTQKSLSLSPGK
chain 2: not shown
chain 3: DIQMTQSPSSLSASVGDRVTITCSASSSVSYMNWYQQKPGKAPKRLIYDTSKLASGVPSRFSGSGSGTDFTLTISSLQPEDFATYYCQQWSSNPPTFGGGTKVEIKRTVAAPSVFIFPPSDEQLKSGTASVVCLLNNFYPREAKVQWKVDNALQSGNSQESVTEQDSKDSTYSLSSTLTLSKADYEKHKVYACEVTHQGLSSPVTKSFNRGESGGSGGDKTHTCPPCPAPEAAGGPSVFLFPPKPKDTLMISRTPEVTCVVVDVSHEDPEVKFNWYVDGVEVHNAKTKPREEQYNSTYRVVSVLTVLHQDWLNGKEYKCKVSNKALPAPIEKTISKAKGQPREPQVYTLPPSREEMTKNQVSLWCLVKGFYPSDIAVEWESNGQPENNYKTTPPVLDSDGSFFLYSKLTVDKSRWQQGNVFSCSVMHEALHNHYTQKSLSLSPGK
- IC50 pM, TAA-dependent cytotoxicity towards RPMI8226 cells [7]: 4.2 pM
- IC50 pM, TAA-dependent cytotoxicity (MM1.R target cells by the text) [8]: 3 pM

B5: Kv6.1 (7GS) CD38/CD3 two-chain in-tandem bispecific antibody with non-cleavable GS second linker (bispecific antibody)
heavy: B4 chain 1
light: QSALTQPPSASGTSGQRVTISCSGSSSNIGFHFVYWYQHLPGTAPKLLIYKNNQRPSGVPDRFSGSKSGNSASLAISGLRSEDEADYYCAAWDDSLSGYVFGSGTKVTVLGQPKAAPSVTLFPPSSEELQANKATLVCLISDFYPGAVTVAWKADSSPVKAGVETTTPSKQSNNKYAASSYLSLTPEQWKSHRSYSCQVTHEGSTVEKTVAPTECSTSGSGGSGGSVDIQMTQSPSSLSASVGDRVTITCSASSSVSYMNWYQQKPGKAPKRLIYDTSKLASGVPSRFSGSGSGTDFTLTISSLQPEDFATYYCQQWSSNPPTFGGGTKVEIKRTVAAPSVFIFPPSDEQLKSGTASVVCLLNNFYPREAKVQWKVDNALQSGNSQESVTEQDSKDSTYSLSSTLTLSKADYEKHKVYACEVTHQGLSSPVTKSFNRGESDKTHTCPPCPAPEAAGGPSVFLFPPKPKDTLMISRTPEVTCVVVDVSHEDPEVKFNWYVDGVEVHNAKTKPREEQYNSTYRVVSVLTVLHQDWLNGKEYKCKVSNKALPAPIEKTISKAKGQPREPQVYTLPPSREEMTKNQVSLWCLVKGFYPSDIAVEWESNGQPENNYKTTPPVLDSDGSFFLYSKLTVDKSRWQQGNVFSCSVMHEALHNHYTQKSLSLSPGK
notes: also called control non-cleavable bispecific antibody having an in-tandem structure (Kv6.1)
- fold reduction of binding to CD3 [6]: > 100 fold
